Assay results: doi:10.1101/2020.02.22.960815 (bioRxiv, 2020)
Positions count from the first letter of the chain named. Numbers in names are those of the source.

B1: human potassium-chloride co-transporter 3 (KCC3), full length, wild type (natural protein, UniProt Q9UHW9-2 1-1099, looked up)
chain: MPHFTVTKVEDPEEGAAASISQEPSLADIKARIQDSDEPDLSQNSITGEHSQLLDDGHKKARNAYLNNSNYEEGDEYFDKNLALFEEEMDTRPKVSSLLNRMANYTNLTQGAKEHEEAENITEGKKKPTKTPQMGTFMGVYLPCLQNIFGVILFLRLTWVVGTAGVLQAFAIVLICCCCTMLTAISMSAIATNGVVPAGGSYFMISRALGPEFGGAVGLCFYLGTTFAAAMYILGAIEIFLVYIVPRAAIFHSDDALKESAAMLNNMRVYGTAFLVLMVLVVFIGVRYVNKFASLFLACVIVSILAIYAGAIKSSFAPPHFPVCMLGNRTLSSRHIDVCSKTKEINNMTVPSKLWGFFCNSSQFFNATCDEYFVHNNVTSIQGIPGLASGIITENLWSNYLPKGEIIEKPSAKSSDVLGSLNHEYVLVDITTSFTLLVGIFFPSVTGIMAGSNRSGDLKDAQKSIPIGTILAILTTSFVYLSNVVLFGACIEGVVLRDKFGDAVKGNLVVGTLSWPSPWVIVIGSFFSTCGAGLQSLTGAPRLLQAIAKDNIIPFLRVFGHSKANGEPTWALLLTAAIAELGILIASLDLVAPILSMFFLMCYLFVNLACALQTLLRTPNWRPRFRYYHWALSFMGMSICLALMFISSWYYAIVAMVIAGMIYKYIEYQGAEKEWGDGIRGLSLSAARFALLRLEEGPPHTKNWRPQLLVLLKLDEDLHVKHPRLLTFASQLKAGKGLTIVGSVIVGNFLENYGEALAAEQTIKHLMEAEKVKGFCQLVVAAKLREGISHLIQSCGLGGMKHNTVVMGWPNGWRQSEDARAWKTFIGTVRVTTAAHLALLVAKNISFFPSNVEQFSEGNIDVWWIVHDGGMLMLLPFLLKQHKVWRKCSIRIFTVAQLEDNSIQMKKDLATFLYHLRIEAEVEVVEMHDSDISAYTYERTLMMEQRSQMLRHMRLSKTERDREAQLVKDRNSMLRLTSIGSDEDEETETYQEKVHMTWTKDKYMASRGQKAKSMEGFQDLLNMRPDQSNVRRMHTAVKLNEVIVNKSHEAKLVLLNMPGPPRNPEGDENYMEFLEVLTEGLERVLLVRGGGSEVITIYS
modifications: phosphorylated threonine built on T940 and T997 (from the cryo-EM map and mass spectra); carbohydrate chains
B2: human potassium-chloride co-transporter 2 (KCC2), full length (natural protein, UniProt Q9H2X9-2 1-1116, looked up)
chain: MLNNLTDCEDGDGGANPGDGNPKESSPFINSTDTEKGKEYDGKNMALFEEEMDTSPMVSSLLSGLANYTNLPQGSREHEEAENNEGGKKKPVQAPRMGTFMGVYLPCLQNIFGVILFLRLTWVVGIAGIMESFCMVFICCSCTMLTAISMSAIATNGVVPAGGSYYMISRSLGPEFGGAVGLCFYLGTTFAGAMYILGTIEILLAYLFPAMAIFKAEDASGEAAAMLNNMRVYGTCVLTCMATVVFVGVKYVNKFALVFLGCVILSILAIYAGVIKSAFDPPNFPICLLGNRTLSRHGFDVCAKLAWEGNETVTTRLWGLFCSSRFLNATCDEYFTRNNVTEIQGIPGAASGLIKENLWSSYLTKGVIVERSGMTSVGLADGTPIDMDHPYVFSDMTSYFTLLVGIYFPSVTGIMAGSNRSGDLRDAQKSIPTGTILAIATTSAVYISSVVLFGACIEGVVLRDKFGEAVNGNLVVGTLAWPSPWVIVIGSFFSTCGAGLQSLTGAPRLLQAISRDGIVPFLQVFGHGKANGEPTWALLLTACICEIGILIASLDEVAPILSMFFLMCYMFVNLACAVQTLLRTPNWRPRFRYYHWTLSFLGMSLCLALMFICSWYYALVAMLIAGLIYKYIEYRGAEKEWGDGIRGLSLSAARYALLRLEEGPPHTKNWRPQLLVLVRVDQDQNVVHPQLLSLTSQLKAGKGLTIVGSVLEGTFLENHPQAQRAEESIRRLMEAEKVKGFCQVVISSNLRDGVSHLIQSGGLGGLQHNTVLVGWPRNWRQKEDHQTWRNFIELVRETTAGHLALLVTKNVSMFPGNPERFSEGSIDVWWIVHDGGMLMLLPFLLRHHKVWRKCKMRIFTVAQMDDNSIQMKKDLTTFLYHLRITAEVEVVEMHESDISAYTYEKTLVMEQRSQILKQMHLTKNEREREIQSITDESRGSIRRKNPANTRLRLNVPEETAGDSEEKPEEEVQLIHDQSAPSCPSSSPSPGEEPEGEGETDPEKVHLTWTKDKSVAEKNKGPSPVSSEGIKDFFSMKPEWENLNQSNVRRMHTAVRLNEVIVKKSRDAKLVLLNMPGPPRNRNGDENYMEFLEVLTEHLDRVMLVRGGGREVITIYS
B3: KCC3 phosphorylation mimic mutant S45E/T940E/T997E (natural protein, human, UniProt Q9UHW9-2 1-1099, looked up)
chain: B1 chain with S45E, T940E, T997E
B4: KCC3 dephosphorylation mimic mutant S45A/T940V/T997V (natural protein, human, UniProt Q9UHW9-2 1-1099, looked up)
chain: B1 chain with S45A, T940V, T997V

Molecular target: the molecule itself
Assay: cryo-EM structure

| Protein | stoichiometry N | binding result |
| --- | --- | --- |
| B1 | 2 |  |
| B2 | 2 |  |
| B3 |  | binds |
| B4 |  | binds |
